Experimental data published in patent US20150344570A1 (published 2015).

B1: GpH7-TA4/GpH7-B3-15-02A/GpL16-k0 (antibody, human IgG1, kappa)
heavy 1: QVQLVQSGAEVKKPGASVTVSCKASGYTFTDYEMHWIRQPPGEGLEWIGAIDPKTGDTAYSESFQDRVTLTADKSTSTAYMELSSLTSEDTAVYYCTRFYSYTYWGQGTLVTVSSASTKGPSVFPLAPSSKSTSGGTAALGCLVKDYFPEPVTVSWNSGALTSGVHTFPAVLQSSGLYSLSSVVTVPSSSLGTQTYICNVNHKPSNTKVDKKVEPKSCDKTHTCPPCPAPEYLWGPSVFLFPPKPKDTLMISRTPEVTCVVVDVSHEDPEVKFNWYVDGVEVHNAKTKPREEQYNSTYRVVSVLTVLHQDWLNGKEYKCKVSNKALPAPIEKTISKAKGQPREPQVYTLPPSRKELTKNQVSLTCLVKGFYPSDIAVEWESNGQPENNYKTTPPVLDSDGSFFLYSKLTVDKSRWQQGNVFSCSVMHEALHNRYTQKSLSLSP
heavy 2: not shown
light: DIVMTQSPLSLPVTPGEPASISCQASESLVHSNRNTYLHWYLQKPGQSPQLLIYKVSNRFSGVPDRFSGSGSGTDFTLKISRVEAEDVGVYYCSQNTHVPPTFGQGTKVEIERTVAAPSVFIFPPSDEQLKSGTASVVCLLNNFYPREAKVQWKVDNALQSGNSQESVTEQDSKDSTYSLSSTLTLSKADYEKHKVYACEVTHQGLSSPVTKSFNRGEC
notes: H1 L234Y and G236W; H2 S298A
B2: GpH7-TA5/GpH7-B3-03-20W/GpL16-k0 (antibody, human IgG1, kappa)
heavy 1: QVQLVQSGAEVKKPGASVTVSCKASGYTFTDYEMHWIRQPPGEGLEWIGAIDPKTGDTAYSESFQDRVTLTADKSTSTAYMELSSLTSEDTAVYYCTRFYSYTYWGQGTLVTVSSASTKGPSVFPLAPSSKSTSGGTAALGCLVKDYFPEPVTVSWNSGALTSGVHTFPAVLQSSGLYSLSSVVTVPSSSLGTQTYICNVNHKPSNTKVDKKVEPKSCDKTHTCPPCPAPEYLGGPSVFLFPPKPKDTLMISRTPEVTCVVVDVSHEDPEVKFNWYVDGVEVHNAKTKPREEQYNATYRVVSVLTVLHQDWLNGKEYKCKVSNKALPAPIEKTISKAKGQPREPQVYTLPPSRKELTKNQVSLTCLVKGFYPSDIAVEWESNGQPENNYKTTPPVLDSDGSFFLYSKLTVDKSRWQQGNVFSCSVMHEALHNRYTQKSLSLSP
heavy 2: not shown
light: DIVMTQSPLSLPVTPGEPASISCQASESLVHSNRNTYLHWYLQKPGQSPQLLIYKVSNRFSGVPDRFSGSGSGTDFTLKISRVEAEDVGVYYCSQNTHVPPTFGQGTKVEIERTVAAPSVFIFPPSDEQLKSGTASVVCLLNNFYPREAKVQWKVDNALQSGNSQESVTEQDSKDSTYSLSSTLTLSKADYEKHKVYACEVTHQGLSSPVTKSFNRGEC
notes: H1 L234Y and S298A; H2 G236W
B3: GpH7-TA6/GpH7-B3-01-15Y/GpL16-k0 (antibody, human IgG1, kappa)
heavy 1: QVQLVQSGAEVKKPGASVTVSCKASGYTFTDYEMHWIRQPPGEGLEWIGAIDPKTGDTAYSESFQDRVTLTADKSTSTAYMELSSLTSEDTAVYYCTRFYSYTYWGQGTLVTVSSASTKGPSVFPLAPSSKSTSGGTAALGCLVKDYFPEPVTVSWNSGALTSGVHTFPAVLQSSGLYSLSSVVTVPSSSLGTQTYICNVNHKPSNTKVDKKVEPKSCDKTHTCPPCPAPELLWGPSVFLFPPKPKDTLMISRTPEVTCVVVDVSHEDPEVKFNWYVDGVEVHNAKTKPREEQYNATYRVVSVLTVLHQDWLNGKEYKCKVSNKALPAPIEKTISKAKGQPREPQVYTLPPSRKELTKNQVSLTCLVKGFYPSDIAVEWESNGQPENNYKTTPPVLDSDGSFFLYSKLTVDKSRWQQGNVFSCSVMHEALHNRYTQKSLSLSP
heavy 2: not shown
light: DIVMTQSPLSLPVTPGEPASISCQASESLVHSNRNTYLHWYLQKPGQSPQLLIYKVSNRFSGVPDRFSGSGSGTDFTLKISRVEAEDVGVYYCSQNTHVPPTFGQGTKVEIERTVAAPSVFIFPPSDEQLKSGTASVVCLLNNFYPREAKVQWKVDNALQSGNSQESVTEQDSKDSTYSLSSTLTLSKADYEKHKVYACEVTHQGLSSPVTKSFNRGEC
notes: H1 G236W and S298A; H2 L234Y
B4: GpH7-A53/GpH7-B78/GpL16-k0 (antibody, human IgG1, kappa)
heavy 1: QVQLVQSGAEVKKPGASVTVSCKASGYTFTDYEMHWIRQPPGEGLEWIGAIDPKTGDTAYSESFQDRVTLTADKSTSTAYMELSSLTSEDTAVYYCTRFYSYTYWGQGTLVTVSSASTKGPSVFPLAPSSKSTSGGTAALGCLVKDYFPEPVTVSWNSGALTSGVHTFPAVLQSSGLYSLSSVVTVPSSSLGTQTYICNVNHKPSNTKVDKKVEPKSCDKTHTCPPCPAPELLGGPDVFLFPPKPKDTLMISRTPEVTCVVVDVSHEDPEVKFNWYVDGVEVHNAKTKPREEQYNSTYRVVSVLTVLHQDWLNGKEYKCKVSNKALPAPIEKTISKAKGQPREPQVYTLPPSRKELTKNQVSLTCLVKGFYPSDIAVEWESNGQPENNYKTTPPVLDSDGSFFLYSKLTVDKSRWQQGNVFSCSVMHEALHNRYTQKSLSLSP
heavy 2: QVQLVQSGAEVKKPGASVTVSCKASGYTFTDYEMHWIRQPPGEGLEWIGAIDPKTGDTAYSESFQDRVTLTADKSTSTAYMELSSLTSEDTAVYYCTRFYSYTYWGQGTLVTVSSASTKGPSVFPLAPSSKSTSGGTAALGCLVKDYFPEPVTVSWNSGALTSGVHTFPAVLQSSGLYSLSSVVTVPSSSLGTQTYICNVNHKPSNTKVDKKVEPKSCDKTHTCPPCPAPELLGGPDVFLFPPKPKDTLMISRTPEVTCVVVDVSHEDPEVKFNWYVDGVEVHNAKTKPREEQYNSTYRVVSVLTVLHQDWLNGKEYKCKVSNKALPLPEEKTISKAKGQPREPQVYTLPPSRDELTKNQVSLTCLVKGFYPSDIAVEWESNGQPENNYKTTPPVLDSDGSFFLYSKLTVDKSRWQQGNVFSCSVMHEALHNHYTQESLSLSP
light: DIVMTQSPLSLPVTPGEPASISCQASESLVHSNRNTYLHWYLQKPGQSPQLLIYKVSNRFSGVPDRFSGSGSGTDFTLKISRVEAEDVGVYYCSQNTHVPPTFGQGTKVEIERTVAAPSVFIFPPSDEQLKSGTASVVCLLNNFYPREAKVQWKVDNALQSGNSQESVTEQDSKDSTYSLSSTLTLSKADYEKHKVYACEVTHQGLSSPVTKSFNRGEC
notes: Anti-glypican-3 IgG1 heterodimer; S239D in H1, S239D/A330L/I332E in H2
B5: GpH7-A5/GpH7-B78/GpL16-k0 (antibody, human IgG1, kappa)
heavy 1: not shown
heavy 2: QVQLVQSGAEVKKPGASVTVSCKASGYTFTDYEMHWIRQPPGEGLEWIGAIDPKTGDTAYSESFQDRVTLTADKSTSTAYMELSSLTSEDTAVYYCTRFYSYTYWGQGTLVTVSSASTKGPSVFPLAPSSKSTSGGTAALGCLVKDYFPEPVTVSWNSGALTSGVHTFPAVLQSSGLYSLSSVVTVPSSSLGTQTYICNVNHKPSNTKVDKKVEPKSCDKTHTCPPCPAPELLGGPDVFLFPPKPKDTLMISRTPEVTCVVVDVSHEDPEVKFNWYVDGVEVHNAKTKPREEQYNSTYRVVSVLTVLHQDWLNGKEYKCKVSNKALPLPEEKTISKAKGQPREPQVYTLPPSRDELTKNQVSLTCLVKGFYPSDIAVEWESNGQPENNYKTTPPVLDSDGSFFLYSKLTVDKSRWQQGNVFSCSVMHEALHNHYTQESLSLSP
light: DIVMTQSPLSLPVTPGEPASISCQASESLVHSNRNTYLHWYLQKPGQSPQLLIYKVSNRFSGVPDRFSGSGSGTDFTLKISRVEAEDVGVYYCSQNTHVPPTFGQGTKVEIERTVAAPSVFIFPPSDEQLKSGTASVVCLLNNFYPREAKVQWKVDNALQSGNSQESVTEQDSKDSTYSLSSTLTLSKADYEKHKVYACEVTHQGLSSPVTKSFNRGEC
notes: Anti-glypican-3 IgG1 heterodimer; S239D/A330L/I332E in H2 only

Columns and labels:
[1] = molecular target: FcγRIIIa extracellular domain with C-terminal His tag (human, UniProt P08637 17-208); assay: SPR (Biacore), relative binding activity; GpH7-A5/GpH7-B3/GpL16-k0 = 100
FcγRIIIa extracellular domain with C-terminal His tag, sequence (P08637 17-208): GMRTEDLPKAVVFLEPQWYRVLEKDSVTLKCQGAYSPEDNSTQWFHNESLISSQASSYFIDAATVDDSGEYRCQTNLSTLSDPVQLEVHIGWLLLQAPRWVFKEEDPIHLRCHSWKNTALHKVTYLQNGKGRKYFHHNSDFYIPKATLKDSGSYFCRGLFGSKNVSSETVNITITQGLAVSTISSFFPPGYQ

FcγRIIIa [2] = molecular target: T1, FcγRIIIa (human, UniProt P08637 17-208); assay: ratio of SPR KDs: KD of GpH7-A5/GpH7-B78/GpL16-k0 divided by KD of this antibody
T1 construct: extracellular domain; also called FcgRIIIa; CD16A; not shown: His tag attached to the C terminus
T1 sequence (P08637 17-208): as above
Description: To assess this hypothesis, GpH7-A53 (SEQ ID NO: 42) resulting from the introduction of S239D into GpH7-A5 was constructed, and, this is combined with GpH7-B78 introduced with S239D, A330L, and I332E, and the expression and preparation were performed according to the method described in Reference Example 1. The effect of the combination of S239D and S239D, A330L, and I332E was assessed by comparing the FcγRIIIa binding between the heterodimerized and homodimerized antibodies with S239D, A330L, and I332E according to the method described in Reference Example 2 (Table 14).
(§1) Analysis of interaction between objective antibody and the FcγR was carried out using Biacore T100 (GE Healthcare). HBS-EP+ (GE Healthcare) was used as the running buffer, and the measurement temperature was set to 25° C. Chips produced by immobilizing the antigen peptide by the amine coupling method to a Series S Sencor Chip CM5 (GE Healthcare), or alternatively, chips produced by allowing preliminarily biotinylated antigen peptides to interact with and immobilize onto a Series S Sensor Chip SA (certified) (GE Healthcare) were used. Antibodies of interest were captured onto an antigen peptide-immobilized chip, and allowed to interact to each FcγR diluted with running buffer. To regenerate and repeatedly use the chip, the antibodies captured on the chip were washed off by reacting 10 mM glycine-HCl, pH 1.5.
(§2) Specifically, to calculate association rate constant ka (L/mol/s) and dissociation rate constant kd (1/s), sensorgrams obtained by measurement were processed for global fitting by Biacore Evaluation Software using 1:1 Langmuir binding model and dissociation constant KD (mol/1) was calculated from the resulting values.

FcγRIIIa [3] = molecular target: T1, FcγRIIIa; assay: ratio of SPR KDs: KD of GpH7-A5/GpH7-B3/GpL16-k0 divided by KD of this antibody
Description: (§3) The prepared antibodies were compared for the FcγRIIIa-binding activity using, as an indicator, KD for FcγRIIIa that was determined according to the method described in Reference Example 2.
as §1, §2

FcγRIIIa [4] = molecular target: T1, FcγRIIIa; assay: ratio of SPR KDs: KD of GpH7-G1d/GpL16-k0 divided by KD of this antibody
Description: as §3, §1, §2

Binder	FcγRIIIa BINDING ACTIVITY [1] [%]	KD ratio (FcγRIIIa [2]) [fold]	KD ratio 2 (FcγRIIIa [3]) [fold]	KD ratio 1 (FcγRIIIa [4]) [fold]
B1	151	–	–	–
B2	97	–	–	–
B3	103	–	–	–
B4	–	4.9	–	–
B5	–	1	30	23
